Reference: PMC10470207, “Activation of human RNA lariat debranching enzyme Dbr1 by binding protein TTDN1 occurs though an intrinsically disordered C-terminal domain” (The Journal of Biological Chemistry, 2023)

Key:
[1] = biological target: T1, human RNA lariat debranching enzyme Dbr1, full-length (1-544) (human, UniProt Q9UK59 1-544); assay: cell-based or functional assay
T1 sequence (looked up): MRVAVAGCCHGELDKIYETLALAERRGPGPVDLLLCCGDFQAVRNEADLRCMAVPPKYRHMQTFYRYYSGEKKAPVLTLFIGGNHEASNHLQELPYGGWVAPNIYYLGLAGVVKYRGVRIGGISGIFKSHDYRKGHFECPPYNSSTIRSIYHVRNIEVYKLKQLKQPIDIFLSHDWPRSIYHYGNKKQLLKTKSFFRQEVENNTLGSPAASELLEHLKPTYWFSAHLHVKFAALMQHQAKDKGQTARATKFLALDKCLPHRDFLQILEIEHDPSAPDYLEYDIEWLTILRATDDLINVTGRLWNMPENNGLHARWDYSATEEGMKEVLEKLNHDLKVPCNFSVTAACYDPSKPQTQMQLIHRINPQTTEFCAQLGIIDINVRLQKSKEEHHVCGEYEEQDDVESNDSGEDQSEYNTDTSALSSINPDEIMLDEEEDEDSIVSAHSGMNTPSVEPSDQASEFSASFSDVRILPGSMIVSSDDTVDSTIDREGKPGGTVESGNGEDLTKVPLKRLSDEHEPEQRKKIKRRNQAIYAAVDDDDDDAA

[2] = biological target: T1, human RNA lariat debranching enzyme …; assay: fluorescence polarisation; fluorescein-labeled TTDN1 fixed at 2.5 nM; unlabeled Dbr1 titrated (3-fold dilution from 2.8 uM to 1 nM) or Drn1 at 225 nM; SEC buffer; black 96-well half-area plates; settings: both partners purified
[3] = biological target: T1, human RNA lariat debranching enzyme …; assay: SEC; Superdex 200-Increase 10/300 in SEC buffer (50 mM Tris pH 8, 100 mM NaCl, 1 mM TCEP); about 100 ug Dbr1 injected, Drn1 added at an equimolar ratio; peak fraction on a Coomassie-stained denaturing gel; settings: both partners purified
[4] = biological target: the molecule itself; assay: AUC; proteins diluted to 0.9 A280 in Q-A buffer (20 mM Tris pH 8, 50 mM NaCl, 1 mM TCEP); 40,000 RPM; analysed with Ultrascan

B1: trichothiodystrophy nonphotosensitive 1 (TTDN1), fluorescein-labeled (natural protein, UniProt Q8TAP9 1-179, looked up)
chain: MQRQNFRPPTPPYPGPGGGGWGSGSSFRGTPGGGGPRPPSPRDGYGSPHHTPPYGPRSRPYGSSHSPRHGGSFPGGRFGSPSPGGYPGSYSRSPAGSQQQFGYSPGQQQTHPQGSPRTSTPFGSGRVREKRMSNELENYFKPSMLEDPWAGLEPVSVVDISQQYSNTQTFTGKKGRYFC
modifications: 5-iodoacetamido-fluorescein label on the cysteine residue at the C terminus
notes: trichothiodystrophy nonphotosensitive 1 (TTDN1); codon-optimized expression plasmid ordered from GenScript; The debranching (functional) assays used unlabeled, GuHCl-solubilized TTDN1 of the same construct; also called labeled TTDN1
- catalytic efficiency of Dbr1 debranching of a fluorescent branched RNA substrate, TTDN1:Dbr1 mixture at 10:1 molar ratio (unlabeled, GuHCl-solubilized TTDN1), relative to Dbr1 alone [1]: 19 fold
- Kd [2]: ~3 nM

B2: Drn1 (human Drn1 homolog, Cwf19-L1) (natural protein, UniProt Q69YN2 1-538, looked up)
chain: MAQKPLRLLACGDVEGKFDILFNRVQAIQKKSGNFDLLLCVGNFFGSTQDAEWEEYKTGIKKAPIQTYVLGANNQETVKYFQDADGCELAENITYLGRKGIFTGSSGLQIVYLSGTESLNEPVPGYSFSPKDVSSLRMMLCTTSQFKGVDILLTSPWPKCVGNFGNSSGEVDTKKCGSALVSSLATGLKPRYHFAALEKTYYERLPYRNHIILQENAQHATRFIALANVGNPEKKKYLYAFSIVPMKLMDAAELVKQPPDVTENPYRKSGQEASIGKQILAPVEESACQFFFDLNEKQGRKRSSTGRDSKSSPHPKQPRKPPQPPGPCWFCLASPEVEKHLVVNIGTHCYLALAKGGLSDDHVLILPIGHYQSVVELSAEVVEEVEKYKATLRRFFKSRGKWCVVFERNYKSHHLQLQVIPVPISCSTTDDIKDAFITQAQEQQIELLEIPEHSDIKQIAQPGAAYFYVELDTGEKLFHRIKKNFPLQFGREVLASEAILNVPDKSDWRQCQISKEDEETLARRFRKDFEPYDFTLDD
notes: human Drn1 homolog (Cwf19-L1); cDNA purchased from Genecopoeia, subcloned into a modified pET vector; source: E. coli BL21, purified (Ni column, Superdex-200)
- stoichiometry N [3]: 1

B3: human Dbr1 truncated after residue 399 (Dbr1-399) (domain or fragment, UniProt Q9UK59 1-399, looked up)
chain: MRVAVAGCCHGELDKIYETLALAERRGPGPVDLLLCCGDFQAVRNEADLRCMAVPPKYRHMQTFYRYYSGEKKAPVLTLFIGGNHEASNHLQELPYGGWVAPNIYYLGLAGVVKYRGVRIGGISGIFKSHDYRKGHFECPPYNSSTIRSIYHVRNIEVYKLKQLKQPIDIFLSHDWPRSIYHYGNKKQLLKTKSFFRQEVENNTLGSPAASELLEHLKPTYWFSAHLHVKFAALMQHQAKDKGQTARATKFLALDKCLPHRDFLQILEIEHDPSAPDYLEYDIEWLTILRATDDLINVTGRLWNMPENNGLHARWDYSATEEGMKEVLEKLNHDLKVPCNFSVTAACYDPSKPQTQMQLIHRINPQTTEFCAQLGIIDINVRLQKSKEEHHVCGEYEEQ
notes: source: E. coli, purified
- binding result [4]: binds

B4: human Dbr1 truncated after residue 502 (Dbr1-502) (domain or fragment, UniProt Q9UK59 1-502, looked up)
chain: MRVAVAGCCHGELDKIYETLALAERRGPGPVDLLLCCGDFQAVRNEADLRCMAVPPKYRHMQTFYRYYSGEKKAPVLTLFIGGNHEASNHLQELPYGGWVAPNIYYLGLAGVVKYRGVRIGGISGIFKSHDYRKGHFECPPYNSSTIRSIYHVRNIEVYKLKQLKQPIDIFLSHDWPRSIYHYGNKKQLLKTKSFFRQEVENNTLGSPAASELLEHLKPTYWFSAHLHVKFAALMQHQAKDKGQTARATKFLALDKCLPHRDFLQILEIEHDPSAPDYLEYDIEWLTILRATDDLINVTGRLWNMPENNGLHARWDYSATEEGMKEVLEKLNHDLKVPCNFSVTAACYDPSKPQTQMQLIHRINPQTTEFCAQLGIIDINVRLQKSKEEHHVCGEYEEQDDVESNDSGEDQSEYNTDTSALSSINPDEIMLDEEEDEDSIVSAHSGMNTPSVEPSDQASEFSASFSDVRILPGSMIVSSDDTVDSTIDREGKPGGTVESGNG
notes: source: E. coli, purified
- binding result [4]: binds
